T1: biotinylated IL-2Rβ ectodomain (C-terminal biotin acceptor peptide and hexahistidine tag) (human, UniProt P14784 27-240, C-terminally biotinylated (biotin acceptor peptide, BirA ligase))
T1 construct: range 1-214; Staining reagent for yeast; also called tetrameric IL-2Rβ; monomeric IL-2Rβ
T1 sequence: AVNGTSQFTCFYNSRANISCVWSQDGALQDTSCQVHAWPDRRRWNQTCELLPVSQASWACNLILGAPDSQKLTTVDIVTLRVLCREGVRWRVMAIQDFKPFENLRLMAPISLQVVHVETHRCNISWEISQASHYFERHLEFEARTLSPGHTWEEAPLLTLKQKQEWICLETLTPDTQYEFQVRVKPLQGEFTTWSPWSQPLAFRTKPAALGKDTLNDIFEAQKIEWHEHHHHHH

T2: human IL-2Rβ ectodomain (amino acids 1-214), C-terminal hexahistidine tag (human, UniProt P14784 27-240)
T2 construct: range 1-214; also called CD122; IL-2Rβ ECD
T2 sequence: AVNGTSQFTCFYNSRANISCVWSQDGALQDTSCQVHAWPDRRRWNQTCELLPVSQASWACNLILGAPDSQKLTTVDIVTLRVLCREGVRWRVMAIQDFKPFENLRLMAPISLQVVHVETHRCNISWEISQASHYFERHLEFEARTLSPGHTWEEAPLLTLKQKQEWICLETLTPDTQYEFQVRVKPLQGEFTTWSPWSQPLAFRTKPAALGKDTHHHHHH

B1: yeast-displayed IL-2 clone G8 (ligand)
chain: APTSSSTKKTQLQLEHLLLDLQMILNGINNYKNPKLTRMLTFKFYMPKKATELKHLQCLEEELKPLEEVLNLANSKNFHFDPRDVVSNINVFVLELKGSETTFMCEYADETATIVEFLNRWITFCQSIISTLT
notes: Clone of the second generation yeast library; not shown: yeast display fusion partner and linker encoded by vector pCT302
B2: yeast-displayed IL-2 clone H4 (ligand)
chain: B1 chain with N74S, F80L, D81T, V86I
notes: as for B1
B3: yeast-displayed IL-2 clone B1 (ligand)
chain: B1 chain with I89V
notes: as for B1
B4: yeast-displayed IL-2 clone D10 (ligand)
chain: B1 chain with N74H
notes: as for B1
B5: yeast-displayed IL-2 clone H9 (ligand)
chain: B1 chain with N74Q
notes: as for B1
B6: yeast-displayed IL-2 clone C5 (ligand)
chain: B1 chain with F80V, D81T
notes: as for B1
B7: yeast-displayed IL-2 clone E10 (ligand)
chain: B1 chain with N74S
notes: as for B1
B8: IL-2 mutein D10 (ligand)
chain: APTSSSTKKTQLQLEHLLLDLQMILNGINNYKNPKLTRMLTFKFYMPKKATELKHLQCLEEELKPLEEVLNLAHSKNFHFDPRDVVSNINVFVLELKGSETTFMCEYADETATIVEFLNRWITFCQSIISTLTHHHHHH
notes: also called IL-2 D10; super-2
B9: IL-2 mutein C5 (ligand)
chain: B8 chain with H74N, F80V, D81T
B10: IL-2 mutein H9 (ligand)
chain: B8 chain with H74Q
notes: also called super-IL-2; super-2
B11: IL-2 mutein H4 (ligand)
chain: B8 chain with H74S, F80L, D81T, V86I
B12: IL-2 mutein B1 (ligand)
chain: B8 chain with H74N, I89V
B13: IL-2 mutein E10 (ligand)
chain: B8 chain with H74S
B14: IL-2 mutein G8 (ligand)
chain: B8 chain with H74N
B15: H9-RET (H9 with L18R, Q22E and Q126T) (ligand)
chain: B8 chain with L18R, Q22E, H74Q, Q126T

The Kd is the concentration at which binding is half-saturated. Usually koff stands for the first-order rate constant of dissociation. As a reminder, the kon is the rate constant with which the complex forms.

Positions count from the first letter of the chain named. Names and notes keep the numbering of the source.

One assay concerns the target T1, biotinylated IL-2Rβ ectodomain …. The assay is described as follows: yeast clone screen: labeling with 5 nM IL-2Rβ and then SAV-PE. Here is the method: Selection of second generation IL-2 library: The library was subjected to five rounds of selection against IL-2Rβ (FIG. 2B). This selection method was performed exactly as with the first generation library, only with modifications to the concentrations of IL-2Rβ used (round 1—1 μM, round 2—100 nM, round 3—30 nM, round 4—30 nM, round 5—10 nM, all monomeric IL-2Rβ). Upon conclusion of selections, round four and round five yeast cultures were spread on SD-CAA plates, which yielded individual yeast colonies. 48 individual yeast clones from both rounds were grown in 96-well block format and screened by labeling with 5 nM IL-2Rβ and then SAV-PE.
For B1, the binding result was “binds”.

Turning to B2, the binding result is reported as “binds”.

With B3, the binding result is “binds”.

Regarding B4, the binding result is “binds”.

Take B5: the binding result is “binds”.

As to B6, the binding result is recorded as “binds”.

Take B7: the binding result was “binds”.

A further assay concerns the target T2, human IL-2Rβ ectodomain (amino acids …). Briefly: SPR (Example 10), recombinant protein.
With B8, the Kd amounted to 1.2 nM.

With B9, the Kd worked out at 10 nM.

For B10, the Kd was determined as 1.3 nM.

Regarding B11, the Kd amounted to 14 nM.

With B12, the Kd was 1.6 nM.

On to B13, for which the Kd came to 1.3 nM.

For the molecule B14, the Kd worked out at 1.5 nM.

The target is the same in the next assay. Briefly: SPR affinities of D10 and wild-type IL-2, told with the structure.
In turn, B8 returned a fold affinity gain of around 300 fold.

The target of another assay is CD25 (IL-2Rα) on CD25+ YT-1 cells (human) (UniProt P01589). The assay is described as follows: cell-based or functional assay.
Sequence of CD25 (IL-2Rα) on CD25+ YT-1 cells (human) (P01589 22-272): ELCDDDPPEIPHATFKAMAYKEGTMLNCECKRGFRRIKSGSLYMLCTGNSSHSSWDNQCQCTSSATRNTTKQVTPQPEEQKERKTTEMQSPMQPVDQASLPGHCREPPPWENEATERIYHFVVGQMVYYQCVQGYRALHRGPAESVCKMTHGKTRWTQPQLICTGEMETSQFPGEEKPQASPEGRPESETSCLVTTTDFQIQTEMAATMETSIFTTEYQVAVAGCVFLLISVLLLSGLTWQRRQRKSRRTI
For “IL-2 F42A (from UniProt P60568 21-153) (ligand)”, the STAT5 phosphorylation dose response on CD25+ YT-1 cells was found to be 1 log.

The next assay addresses T2, human IL-2Rβ ectodomain (amino acids …). The assay is described as follows: surface plasmon resonance. A general note: Surface plasmon resonance follows binding to a sensor surface in real time, without labels.
With B8, the Kd was 1.3 nM, the koff worked out at 0.0051 s⁻¹ and the kon amounted to 4.1e+06 M⁻¹ s⁻¹.

The molecule B9 registered a koff of 0.016 s⁻¹.

B10: the affinity, expressed as Kd, was 1.4 nM; the koff came to 0.0056 s⁻¹; the kon turned out to be 4.1e+06 M⁻¹ s⁻¹.

B11 registered a koff of 0.013 s⁻¹.

B12 displayed a koff of 0.005 s⁻¹.

On to B13, for which the koff was determined as 0.0055 s⁻¹.

B14 yielded a koff of 0.0049 s⁻¹.

A further assay shares this target. The assay is described as follows: SPR. Here is the method: Dissociation was then tracked for 200 s. An irrelevant biotinylated protein was immobilized in the reference channel to subtract non-specific binding from the measurements. Experiments were carried out in HBS-P+ buffer (GE Healthcare) supplemented with 0.2% BSA at 25° C. All binding studies were performed at a flow rate of […] to minimize mass transport contributions and prevent rebinding of the analyte. For all measurements, data analysis and determination of equilibrium and kinetic parameters were implemented using the Biacore T100 evaluation software version 2.0 assuming a 1:1 Langmuir binding model.
In the case of B15, the binding result is “binds”.

Source of the values: US20190119346A1 (Stanford University, published 2019).
